Test results published in patent publication US20260125457A1 (Janssen / Centocor, published 2026).

What was measured:
[1] = biological target: HIS-CALRdel52 (produced in E. coli); assay: QC monoclonal phage ELISA, helper phage control
[2] = biological target: T1, CD3 on primary human pan T cells (human, UniProt P07766 23-207); assay: flow cytometry on pan CD3 T cells, 1 h at 37 C, AF647 secondary antibody, Geometric Mean
T1 construct: whole, on cells; also called CD3e; CD3ε
Procedure: FIG. 22 depicts binding of different CALRmutxCD3 bispecific antibodies to pan CD3 T cells. Flow cytometry was used to evaluate CALRmutxCD3 binding to pan CD3 T cells in vitro, by 1 hour 37° C. incubation, with subsequent incubation with secondary AF647-labeled antibody. Geometric mean fluorescence intensity of AF647 was measured to determine antibody binding.
Flow cytometry was used to evaluate the CD3 arm binding of CALRmutxCD3 antibodies listed in Table 21 to CD3+ pan T cells from healthy human donor. CALRmutxCD3 were tested after 1 hour 37° C. incubation with pan T cells.

[3] = biological target: T2, wild-type calreticulin (CALRwt) expressed with MPL in engineered cancer cells (UniProt P27797 18-417, limits assumed); assay: flow cytometry on ELF-153 MPL CALRwt cells, 1 h at 37 C, AF647 secondary antibody, Geometric Mean
T2 construct: whole, on cells; also called OCI-M2 MPL CALRwt
T2 sequence (looked up): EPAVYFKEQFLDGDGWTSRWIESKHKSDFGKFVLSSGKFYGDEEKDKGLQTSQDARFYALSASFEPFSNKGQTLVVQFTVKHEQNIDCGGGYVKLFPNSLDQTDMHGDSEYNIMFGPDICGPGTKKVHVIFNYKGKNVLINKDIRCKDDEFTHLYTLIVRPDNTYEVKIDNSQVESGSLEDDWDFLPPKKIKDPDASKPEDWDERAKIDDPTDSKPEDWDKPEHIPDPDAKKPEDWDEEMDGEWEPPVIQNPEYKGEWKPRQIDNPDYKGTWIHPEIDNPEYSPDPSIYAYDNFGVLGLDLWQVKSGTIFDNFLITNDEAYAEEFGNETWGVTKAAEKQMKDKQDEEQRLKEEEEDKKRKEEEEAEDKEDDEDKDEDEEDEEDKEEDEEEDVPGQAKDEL
Procedure: (§1) FIGS. 21A-21F depict binding of different CALRmutxCD3 bispecific antibodies to CALRmut-negative or CALRmut-positive cells. Flow cytometry was used to evaluate CALRmutxCD3 binding to CALRmut-negative and CALRmut-positive cancer cells in vitro. CALRmutxCD3 antibodies were tested on a panel of cell lines, engineered to express MPL and CALRmut, after 1 hour 37° C. incubation, with subsequent incubation with secondary AF647-labeled antibody. Geometric mean fluorescence intensity of AF647 was measured to determine antibody binding.

[4] = biological target: T3, CALRins5 (mutant calreticulin, 5 base pair insertion, Type 2) expressed with MPL on engineered cancer cells (UniProt P27797 18-417); assay: flow cytometry on ELF-153 MPL CALRins5 cells, 1 h at 37 C, AF647 secondary antibody, Geometric Mean
T3 construct: whole, on cells; On the cell surface in complex with MPL; also called OCI-M2 MPL CALRins5
T3 sequence (looked up): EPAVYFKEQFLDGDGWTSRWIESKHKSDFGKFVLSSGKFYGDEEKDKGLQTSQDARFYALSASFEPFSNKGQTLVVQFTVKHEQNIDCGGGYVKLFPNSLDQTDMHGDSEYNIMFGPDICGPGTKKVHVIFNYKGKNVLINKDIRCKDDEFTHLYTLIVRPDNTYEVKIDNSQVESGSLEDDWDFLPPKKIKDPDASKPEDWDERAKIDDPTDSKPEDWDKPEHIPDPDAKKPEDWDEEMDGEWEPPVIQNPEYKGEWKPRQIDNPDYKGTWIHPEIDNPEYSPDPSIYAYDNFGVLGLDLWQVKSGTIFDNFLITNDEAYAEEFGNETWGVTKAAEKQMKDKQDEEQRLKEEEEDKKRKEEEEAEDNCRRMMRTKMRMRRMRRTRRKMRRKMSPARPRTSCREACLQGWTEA
Procedure: as §1

[5] = biological target: T4, CALRdel52 (mutant calreticulin, 52 base pair deletion, Type 1) expressed with MPL on engineered cancer cells (UniProt P27797 18-417); assay: flow cytometry on OCI-M2 MPL CALRdel52 cells, 1 h at 37 C, AF647 secondary antibody, Geometric Mean
T4 construct: whole, on cells; On the cell surface in complex with MPL; also called OCI-M2 MPL CALRdel52
T4 sequence (looked up): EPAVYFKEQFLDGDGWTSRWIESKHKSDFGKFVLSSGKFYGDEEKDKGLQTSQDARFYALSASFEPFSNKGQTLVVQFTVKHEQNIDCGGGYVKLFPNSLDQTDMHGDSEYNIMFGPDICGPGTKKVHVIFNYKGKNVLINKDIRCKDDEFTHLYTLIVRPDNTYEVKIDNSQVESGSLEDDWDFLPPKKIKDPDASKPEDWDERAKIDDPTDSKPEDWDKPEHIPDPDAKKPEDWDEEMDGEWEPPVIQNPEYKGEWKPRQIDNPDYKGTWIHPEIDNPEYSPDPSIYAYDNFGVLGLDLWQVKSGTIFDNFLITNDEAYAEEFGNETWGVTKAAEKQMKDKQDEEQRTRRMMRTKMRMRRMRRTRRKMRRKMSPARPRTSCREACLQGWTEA
Procedure: as §1

T1 sequence (P07766 23-207): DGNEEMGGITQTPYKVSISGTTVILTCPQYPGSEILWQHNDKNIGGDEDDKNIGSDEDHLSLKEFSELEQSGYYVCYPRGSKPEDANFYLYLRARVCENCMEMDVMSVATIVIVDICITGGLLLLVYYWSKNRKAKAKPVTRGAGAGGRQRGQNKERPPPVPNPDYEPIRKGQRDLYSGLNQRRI

Row | Molecule | phage ELISA signal (Coating: CALR) [1] | EC50 (read off the curve) [2] [nM] | binding result [3] | EC50 (read off the curve) [4] [nM] | EC50 (read off the curve) [5] [nM] | binding result [2]
1 | M13KO7 | 0.225 | – | – | – | – | –
2 | CALRB1508 CALRmut x CD3 bispecific antibody (bispecific antibody, human IgG1, kappa, L234A L235A, Chain A: CD3 spFv-Fc; Chain B: CALRB1114 Fab arm) scFv: DIQMTQSPSSLSASVGDRVTITCRARQSIGTAIHWYQQKPGCAPKLLIKYASESISGVPSRFSGSGSGTDFTLTISSLQPEDFATYYCQQSGSWPYTFGQGTKLEIKGGGSGGSGGCPPCGGSGGEVQLVESGGGLVKPGGSLRLSCAASGFTFSRYNMNWVRQAPGKGLEWVSSISTSSNYIYYADSVKGRFTFSRDNAKNSLDLQMSGLRAEDTAIYYCTRGWGPFDYWGCGTLVTVSSEPKSSDKTHTCPPCPAPEAAGGPSVFLFPPKPKDTLMISRTPEVTCVVVSVSHEDPEVKFNWYVDGVEVHNAKTKPREEQYNSTYRVVSVLTVLHQDWLNGKEYKCKVSNKALPAPIEKTISKAKGQPREPQVYTLPPSREEMTKNQVSLWCLVKGFYPSDIAVEWESNGQPENNYKTTPPVLDSDGSFFLYSKLTVDKSRWQQGNVFSCSVMHEALHNHYTQKSLSLSPGK heavy: QVQLVQSGAEVKKPGASVKVSCKASGFSLSSYAMSWVRQAPGQGLEWMGVIDSGGTTYYAQKFQGRVTMTRDTSTSTVYMELSSLRSEDTAVYYCARESYAGYDYYGHPIPYGMEPWGQGTLVTVSSASTKGPSVFPLAPSSKSTSGGTAALGCLVKDYFPEPVTVSWNSGALTSGVHTFPAVLQSSGLYSLSSVVTVPSSSLGTQTYICNVNHKPSNTKVDKKVEPKSCDKTHTCPPCPAPEAAGGPSVFLFPPKPKDTLMISRTPEVTCVVVSVSHEDPEVKFNWYVDGVEVHNAKTKPREEQYNSTYRVVSVLTVLHQDWLNGKEYKCKVSNKALPAPIEKTISKAKGQPREPQVYTLPPSREEMTKNQVSLSCAVKGFYPSDIAVEWESNGQPENNYKTTPPVLDSDGSFFLVSKLTVDKSRWQQGNVFSCSVMHEALHNRFTQKSLSLSPGK light: DIQMTQSPSTLSASVGDRVTITCQASQSLYNNKNLAWYQQKPGKAPKLLIYYASALASGVPSRFSGSGSGTEFTLTISSLQPDDFATYYCQGEFNCNSADCNSFGGGTKVEIKRTVAAPSVFIFPPSDEQLKSGTASVVCLLNNFYPREAKVQWKVDNALQSGNSQESVTEQDSKDSTYSLSSTLTLSKADYEKHKVYACEVTHQGLSSPVTKSFNRGEC | – | ~3 | no binding (tested: 100 nM) | ~3 | ~4 | –
3 | C3CRB75 CALRmut x CD3 bispecific antibody (bispecific antibody, human IgG1, kappa, L234A L235A, Chain A heavy: CALRB421 Fab heavy part, CD3 spFv, Fc; Chain B heavy: CALRB421; one light chain on each) heavy 1: EVQLLESGGGLVQPGGSLRLSCAVSGIDLSNNAISWVRQAPGKGLEYVGVIGNTGDTYYADSAKGRFTISRDSSKTTLYLQMNSLRAEDTAVYFCVRGPPSYSSSVKNIWGQGTLVTVSSASTKGPSVFPLAPSSKSTSGGTAALGCLVKDYFPEPVTVSWNSGALTSGVHTFPAVLQSSGLYSLSSVVTVPSSSLGTQTYICNVNHKPSNTKVDKKVEPKSCDGGGGSGGGGSDIQMTQSPSSLSASVGDRVTITCRARQSIGTAIHWYQQKPGCAPKLLIKYASESISGVPSRFSGSGSGTDFTLTISSLQPEDFATYYCQQSGSWPYTFGQGTKLEIKGGGSGGSGGCPPCGGSGGEVQLVESGGGLVKPGGSLRLSCAASGFTFSRYNMNWVRQAPGKGLEWVSSISTSSNYIYYADSVKGRFTFSRDNAKNSLDLQMSGLRAEDTAIYYCTRGWGPFDYWGCGTLVTVSSEPKSSDKTHTCPPCPAPEAAGGPSVFLFPPKPKDTLMISRTPEVTCVVVSVSHEDPEVKFNWYVDGVEVHNAKTKPREEQYNSTYRVVSVLTVLHQDWLNGKEYKCKVSNKALPAPIEKTISKAKGQPREPQVYTLPPSREEMTKNQVSLWCLVKGFYPSDIAVEWESNGQPENNYKTTPPVLDSDGSFFLYSKLTVDKSRWQQGNVFSCSVMHEALHNHYTQKSLSLSPGK heavy 2: EVQLLESGGGLVQPGGSLRLSCAVSGIDLSNNAISWVRQAPGKGLEYVGVIGNTGDTYYADSAKGRFTISRDSSKTTLYLQMNSLRAEDTAVYFCVRGPPSYSSSVKNIWGQGTLVTVSSASTKGPSVFPLAPSSKSTSGGTAALGCLVKDYFPEPVTVSWNSGALTSGVHTFPAVLQSSGLYSLSSVVTVPSSSLGTQTYICNVNHKPSNTKVDKKVEPKSCDKTHTCPPCPAPEAAGGPSVFLFPPKPKDTLMISRTPEVTCVVVSVSHEDPEVKFNWYVDGVEVHNAKTKPREEQYNSTYRVVSVLTVLHQDWLNGKEYKCKVSNKALPAPIEKTISKAKGQPREPQVYTLPPSREEMTKNQVSLSCAVKGFYPSDIAVEWESNGQPENNYKTTPPVLDSDGSFFLVSKLTVDKSRWQQGNVFSCSVMHEALHNRFTQKSLSLSPGK light: DIQMTQSPSSVSASVGDRVTITCQSSQSVYNNNWLSWLQQKPGKAPKRLIYDASKLESGVPSRFSGSGSGTDFTLTISSVQPEDAATYYCAGGFTGNVYTFGGGTKVEIKRTVAAPSVFIFPPSDEQLKSGTASVVCLLNNFYPREAKVQWKVDNALQSGNSQESVTEQDSKDSTYSLSSTLTLSKADYEKHKVYACEVTHQGLSSPVTKSFNRGEC | – | – | no binding (tested: 100 nM) | ~0.5 | ~2 | binds
